Measurements reported in article PMC5076370.

Key:
[1] = molecular target: GoxA precursor protein lacking CTQ (Marinomonas mediterranea); assay: SEC
[2] = molecular target: active GoxA with mature CTQ (Marinomonas mediterranea); assay: SEC

Row | Substance | stoichiometry N (GoxB per GoxA precursor) [1] | stoichiometry N [2]
1 | GoxB (enzyme) | 1 | –
2 | active GoxA with mature CTQ (enzyme) | – | 2
